Conditions in all cases: pH 7.1; 25 °C
Substrate in one data set: p-NP-C2
Substrate in the next data set: p-NP-C3
Substrate in the next data set: p-NP-C4
Substrate in the next data set: p-NP-C5
Substrate in the next data set: p-NP-C6
Substrate in another data set: p-NP-C8

One may read the Km as the concentration of substrate that gives half-maximal velocity. The term kcat denotes the maximal rate divided by the concentration of active sites. What is called kcat/Km is the second-order rate constant that governs catalysis at low substrate concentration.

B1: unnamed (protein)
chain: MKPENKLPVLDLISAEMKTVVNTLQPDLPPWPATGTIAEQRQYYTLERRFWNAGAPEMATRAYMVPTKYGQVETRLFCPQPDSPATLFYLHGGGFILGNLDTHDRIMRLLASYSQCTVIGIDYTLSPEARFPQAIEEIVAACCYFHQQAEDYQINMSRIGFAGDSAGAMLALASALWLRDKQIDCGKVAGVLLWYGLYGLRDSVTRRLLGGVWDGLTQQDLQMYEEAYLSNDADRESPYYCLFNNDLTREVPPCFIAGAEFDPLLDDSRLLYQTLAAHQQPCEFKLYPGTLHAFLHYSRMMKTADEALRDGAQFFTAQL
For the protein B1, the Km with p-NP-C2 came to 1500 µM; in the data set with p-NP-C3, 700 µM; in the data set with p-NP-C4, 500 µM; in the data set with p-NP-C5 it was 260 µM; with p-NP-C6, 220 µM; in the data set with p-NP-C8 it was 160 µM. Moreover, the kcat came out at 30.8 s⁻¹ with p-NP-C2; 30.9 s⁻¹ in the data set with p-NP-C3; 30.9 s⁻¹ with p-NP-C4; 20.5 s⁻¹ with p-NP-C5; 6.2 s⁻¹ with p-NP-C6; 0.21 s⁻¹ in the data set with p-NP-C8. Moreover, the kcat/Km in the data set with p-NP-C2 stood at 20500 M⁻¹ s⁻¹; in the data set with p-NP-C3 it was 44100 M⁻¹ s⁻¹; with p-NP-C4 it was 61800 M⁻¹ s⁻¹; with p-NP-C5, 78800 M⁻¹ s⁻¹; in the data set with p-NP-C6, 28200 M⁻¹ s⁻¹; with p-NP-C8 it was 1310 M⁻¹ s⁻¹.

The record behind these values is the PETadex activity labels (doi:10.1042/bj3320075).
